Reference: patent US20220112292A1 (ALETA BIOTHERAPEUTICS, published 2022)

T1: Clec12A-His (Sino Biological, 11896-H07H) (human, UniProt Q5QGZ9 65-265)
T1 construct: Bought soluble protein; also called soluble CLEC12a-His; Sino Biological Clec12A
T1 chain: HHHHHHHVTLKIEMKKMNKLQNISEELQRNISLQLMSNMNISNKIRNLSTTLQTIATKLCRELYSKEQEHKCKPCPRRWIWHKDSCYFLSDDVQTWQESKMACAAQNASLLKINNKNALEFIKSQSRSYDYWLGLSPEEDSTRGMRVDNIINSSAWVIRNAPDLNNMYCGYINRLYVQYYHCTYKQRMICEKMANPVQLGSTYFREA

T2: CLL-1 on U937 cells (human, UniProt Q5QGZ9 1-265)
T2 construct: whole, on cells; also called CLEC12A; Clec12A
T2 sequence: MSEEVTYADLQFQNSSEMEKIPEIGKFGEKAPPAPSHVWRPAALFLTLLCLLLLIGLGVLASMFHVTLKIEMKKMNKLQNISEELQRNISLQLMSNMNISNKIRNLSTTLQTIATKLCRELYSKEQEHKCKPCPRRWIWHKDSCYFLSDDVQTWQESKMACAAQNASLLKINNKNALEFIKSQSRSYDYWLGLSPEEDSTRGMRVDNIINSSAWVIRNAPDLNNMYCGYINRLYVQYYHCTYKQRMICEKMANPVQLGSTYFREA

T3: Clec12A (ABclonal, RP01018) (human, UniProt Q5QGZ9-1 75-275, limits assumed)
T3 construct: Bought recombinant protein; also called ABclonal Clec12A; Clec12A from AbClonal
T3 sequence: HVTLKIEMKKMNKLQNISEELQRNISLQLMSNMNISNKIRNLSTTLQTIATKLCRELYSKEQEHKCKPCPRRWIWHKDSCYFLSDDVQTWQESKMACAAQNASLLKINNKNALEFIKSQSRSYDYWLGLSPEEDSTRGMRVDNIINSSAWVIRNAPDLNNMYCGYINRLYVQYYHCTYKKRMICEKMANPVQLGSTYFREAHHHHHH


Columns and labels:
[1] = molecular target: T1, Clec12A-His (Sino Biological, …); test: ELISA on plate coated with CLEC12a-His; unlabeled VHH at 10 ug/ml first, biotinylated VHH at 0.2 ug/ml second, streptavidin-HRP
Experimental: ELISAs were used to determine if the VHH clones recognized distinct or similar epitopes. […] The plate was blocked with 0.3% nonfat milk in TBS (200 ul/well) for 1 hr at RT. The plates were washed 3× with 1×TBST (0.1 M Tris, 0.5 M NaCl and 0.05% Tween-20). The test anti-CLEC12a VHHs were added at 10 ug/ml horizontally across the plate, 100 ul per well and incubated for 1 h. Without washing, the test anti-CLEC12a biotinylated VHHs were added at 0.2 ug/ml vertically down the plate, 100 ul per well and incubate for 1 h. After being washed 3× with 1×TBST, HRP-conjugated streptavidin (Pierce #21130) at 1:2000 (100 ul/well) was added, followed by incubation at RT in the dark for 1 hr. For detection, 1-Step Ultra TMB-ELISA reagent (Thermo Fisher #34028) was added at 100 ul per well and read at 450 nm. […] The 1H1 VHH was distinct from these, and 2C2 was intermediate. Results are depicted in FIGS. 7A-7D.

CLL-1 on U937 cells [2] = molecular target: T2, CLL-1 on U937 cells; test: flow cytometry on U937 cells, VHH in 3-fold dilutions, detected with a-His-PE; percent of cells positive
Experimental: (§1) U937 cell binding by VHH clones was assessed using varying doses to determine EC50s. Briefly, the method included: VHH clones (3 ug/ml as starting conc./test, with 3× serial dilutions) in FACS buffer were added to Fc blocked U937 or 293T-CLL1 cells (2.5×10\hat{ }5), the mixtures were incubated for 30 min at 4° C., then washed twice with FACS buffer by spinning at 500G for 2 min; anti-His-PE was added to cells, the mixture was incubated for 30 min at 4° C. and washed twice with FACS buffer by spinning at 500G for 2 min; 1% PFA (Paraformaldehyde) in PBS was added to cell pellet to fix the cells, followed by FACS analysis. VHH clones tested: 1B5: stock=1.6 mg/ml; 1H1: stock=1.9 mg/ml; 1G6: stock=1.1 mg/ml; 2F3: stock=1.45 mg/ml; 2F5: stock=0.5 mg/ml; 2H3: stock=2 mg/ml.

CLL-1 on U937 cells [3] = molecular target: T2, CLL-1 on U937 cells; test: flow cytometry on U937 cells, VHH at 3 ug/ml, detected with a-His-PE; a-His-PE alone 1.1% and 5,576.5, unstained 0.6% and 5,793.5
Experimental: U937 cell binding by VHH clones was assessed. Briefly, the method included: U937 cells (2.5×10\hat{ }5) were Fc blocked (human Fc block, BD Cat. #BDB564220) for 10 min at room temperature, then washed once with FACS buffer (PBS+1% BSA+0.1% Sodium Azide) by spinning at 500G for 2 min; VHH clones (3 μg/ml as final conc) in FACS buffer were added to the cell pellets and incubated for 30 min at 4° C., then washed twice with FACS buffer by spinning at 500G for 2 min; anti-His-PE (R&D Systems, Cat. #IC050P) was added to cells; the mixture was incubated for 30 min at 4° C. and washed twice with FACS buffer by spinning at 500G for 2 min; 1% PFA (Paraformaldehyde) in PBS was added to cell pellet to fix the cells, followed by FACS analysis. VHH clones tested: 1B5: stock=1.6 mg/ml; 1H1: stock=1.9 mg/ml; 1G6: stock=1.1 mg/ml; 2F3: stock=1.45 mg/ml; 2F5: stock=0.5 mg/ml; 2H3: stock=2 mg/ml. As shown in FIGS. 2A-2C, binding of clones 1H1, 1G6, 2F5 and 2H3 to U937 cells was detected with anti-His-PE; very little binding of clones 1B5 and 2F3 to U937 cells could be detected by anti-His-PE.

CLL-1 on U937 cells [4] = molecular target: T2, CLL-1 on U937 cells; test: flow cytometry on U937 cells, % binding against ng/ml, detected with a-His-PE; EC50 of the fitted curve
Experimental: as §1

CLL-1 on U937 cells [5] = molecular target: T2, CLL-1 on U937 cells; test: flow cytometry on U937 cells, 3x serial dilutions from 3 ug/ml, anti-His-PE
Experimental: as §1

CLL-1 on U937 cells [6] = molecular target: T2, CLL-1 on U937 cells; test: flow cytometry on U937 cells, clone lysate, anti-cMyc-PE (Table 3 summary)
CLL-1 on U937 cells [7] = molecular target: T2, CLL-1 on U937 cells; test: flow cytometry on U937 cells, % binding against ng/ml, detected with a-His-PE; EC50 of the fitted curve; the curve of 1H1 reaches about 70% at 3000 ng/ml without a plateau
Experimental: as §1

CLL-1 on U937 cells [8] = molecular target: T2, CLL-1 on U937 cells; test: flow cytometry on U937 cells, clone at 3ug/ml, a-Myc then a-mIgG-PE; no clone 0.6% and 64,740.2, unstained 0.0% and 4,885.0
Experimental: (§2) Additional VHH clones were assessed for binding to U937. […] Clones tested: 1A10: stock=0.9 mg/ml; 1B1: stock=0.9 mg/ml; […]: stock=1.5 mg/ml; 2C8: stock=0.9 mg/ml; 1D2: stock=0.06 mg/ml. Previous clone as control 2F5: stock=0.5 mg/ml.

CLL-1 on U937 cells [9] = molecular target: T2, CLL-1 on U937 cells; test: flow cytometry on U937 cells, a-cMyc then a-msIgG-PE
Experimental: as §2

[10] = molecular target: T1, Clec12A-His (Sino Biological, …); test: ELISA, upper graph (first experiment): coated with clec12a, then 2H3, anti-myc, HRP-anti-mIgG; OD405
Experimental: (§3) The ability of VHH clones to recognize commercially available recombinant Clec12a proteins was tested by ELISA. […] The plate was blocked with 200 μl/well 0.3% non-fat milk in Tris buffered saline (TBS) for 1 hr at room temperature (RT). Then, the plates were washed 3× with wash buffer (1×TBST: 0.1 M Tris, 0.5 M NaCl, 0.05% Tween 20). Next, 100 μl of the 2H3 VHH-Myc-His (SEQ ID NO: 15, purified by ProSci), was added starting at 5 μg/ml with 3 fold dilutions, and incubated for 1 h at RT. The plate was washed 3× with wash buffer and 100 μl of 1 ug/ml anti-Myc antibody (NOVUS/Fisher, NBP2-37822) was added per well. The plate was incubated for 1 h at RT and then washed 3× with wash buffer. Following the wash step, 100 μl of a 1:2000 dilution of HRP-anti-mIgG (Jackson ImmunoResearch, 115-035-062) was added per well and incubated at RT in the dark for 1 hr. […] This experiment was repeated twice.

[11] = molecular target: T1, Clec12A-His (Sino Biological, …); test: ELISA, lower graph (second experiment): coated with clec12a, then 2H3, anti-myc, HRP-anti-mIgG; OD405
Experimental: as §3

[12] = molecular target: T3, Clec12A (ABclonal, RP01018); test: ELISA: coated with clec12a, then 2H3, anti-myc, HRP-anti-mIgG; OD405
Experimental: as §3

Row | binding result [1] | % binding at 1.4 ng/ml (CLL-1 on U937 cells [2]) [%] | % binding at 4.1 ng/ml (CLL-1 on U937 cells [2]) [%] | % binding at 12.3 ng/ml (CLL-1 on U937 cells [2]) [%] | % binding at 37.0 ng/ml (CLL-1 on U937 cells [2]) [%] | % binding at 111.1 ng/ml (CLL-1 on U937 cells [2]) [%] | % binding at 333.3 ng/ml (CLL-1 on U937 cells [2]) [%] | % binding at 1000 ng/ml (CLL-1 on U937 cells [2]) [%] | % binding at 3000 ng/ml (CLL-1 on U937 cells [2]) [%] | % of This Plot (R3 PE+) (CLL-1 on U937 cells [3]) [%] | Mean FL2-A (R3 gate) (CLL-1 on U937 cells [3]) | EC50 (CLL-1 on U937 cells [4]) [µg/mL] | EC50 (CLL-1 on U937 cells [5]) [pM] | % FACS positive (CLL-1 on U937 cells [6]) [%] | Binder | further results
1 | binds | 6 | 26.8 | 56.7 | 83.1 | 87.7 | 88.2 | 88.6 | 88.9 | 95.6 | 9310 | 0.00772 | 490 | – | VHH clone 1G6 (VHH, includes myc and His tags; also called 2G11; 2H2) VHH: QVQLQQSGGGLVQAGGSLRLSCAASGSIFAINEINLMGWYRQAPGKQRELVAACASDGNTYYADSVKGRFTISRDNAEKTVYLQMNNLKPDDTAVYYCDANSRGNYYSGQGTQVTVSS | –
2 | binds | 4.6 | 24.2 | 59.3 | 83.1 | 86 | 86.7 | 85.9 | 86.4 | 95.5 | 9260 | 0.00745 | 470 | 72.7 | VHH clone 2F5 (VHH, Includes myc and His tags) VHH: QVQLQQSGGGLAQTGGSLILSCAASGSIFAINEINLMGWYRQAPGKQRELVAACASDGNTYYADSVKGRFTISRDNAEKTVYLQMNNLKPDDTAVYYCDANSRGNYYSGQGTQVTVSS | –
3 | binds | 0.6 | 0.7 | 0.7 | 0.9 | 2.1 | 10.4 | 35.7 | 71 | 88.6 | 6730 | – | 81000 | 10.8 | VHH clone 1H1 (VHH, includes myc and His tags; also called 2F4) VHH: QVQLQESGGGLVQPGGSLRLSCAASGFTFNSYAMTWVRQAPGKGLEWVSDINSGGGSTNYADSVKGRFTISRDNAKNTLYLQMNSLKPEDTAVYYCATELRGSDYYRGPIREYAYWGQGTLVTVSS | EC50 (CLL-1 on U937 cells [7]): 1.37 µg/mL
4 | – | – | – | – | – | – | – | – | – | – | – | – | – | – | 1C6 (VHH, also called VHH clone 1C6) VHH: QVQLQESGGALVQAGGSLRLSCAASGLTFSNYAMGWFRQAPGKEREFVAAINWSGGTTDYATSVKGRFTISRDNAKNTVYLQLNSLKPEDTAVYYCAASYRLRITVVVTPDEYHYWGQGTLVTVSS | % of This Plot (R3) (CLL-1 on U937 cells [8]): 6%; Mean FL2-A (R3 gate) (CLL-1 on U937 cells [8]): 12300; binding result (CLL-1 on U937 cells [9]): no binding (tested: 3ug/ml)
5 | – | 6.2 | 33.5 | 70.5 | 89 | 89.4 | 89.9 | 90.3 | 88.7 | 93.8 | 8130 | 0.00547 | 350 | 94.3 | VHH clone 2H3 (VHH, Includes myc and His tags; also called 2H3 VHH-Myc-His; VHH 2H3) VHH: QVQLQESGGGLVQAGGSLRLSCVASGSIRSINVMGWYRQAPGKQRELVAACASDGNTYYADSVKGRFTISRDNAEKTVYLQMNNLKPDDTAVYYCDANSRGNYYSGQGTQVTVSS | EC50 [10]: 0.0661 µg/mL; EC50 [11]: 0.0625 µg/mL; binding result [12]: no binding (tested: about 5000 ng/ml)
